Laboratory results reported in the supplement of paper PMC12764529.
± gives the half width of the 95% confidence interval.

assay: folding stability dG unfold from trypsin proteolysis; higher = more stable
In short: (§1)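 Mini-proteins designed to be under 80 residues and free of cysteine were carried in a PA-tagged cDNA display construct and digested with trypsin and with chymotrypsin. Each protease was applied at 11 threefold-diluted concentrations, alongside a no-protease condition, before sequencing. K50 came from Bayesian fitting of the sequencing counts, and unfolding free energy was obtained by comparing it with a sequence-predicted unfolded-state K50 and a shared folded-state K50, for each protease separately or for both together. Designs were retained only if their AlphaFold2 dimer inter-PAE exceeded 15.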

First: SAGGSAGGSAGDDGSDLPVVDLKVSISPFVRPLPNGEEVTVWKVLVENPGSSSRSEFYFGSAGGSAGGSAGG [r17_59_TrMRF]
Second: SAGGSAGGSAGKKYKVKVILQPKGEDKPLEIEIEVESLEEAKELLEKAFPDTRIRIDVIESAGGSAGGSAGG [r17_428_TrMRF]
The “folding stability dG unfold” value of the first is lower: 0.337 ± 0.12 kcal/mol for the first, 1.99 ± 0.098 kcal/mol for the second.

Compared with “SAGGSAGGSKTPVFYIPPSLKDPEKAIELLEEIRKKIPPGTKIAVIAPGGGIPELKKAGLITASAGGSAGGS [r12_992_TrMRF]”, “SAGGETKTLTIKFYDPKTGKLVAEVTITYTPEKVTVTIRFADGTTETVEMTAEELLAKLPPGAVIVPSAGGS [r16_543_TrROS_Hall]” is higher in “folding stability dG unfold” value: 0.344 ± 0.048 kcal/mol for the first, 3.79 ± 0.11 kcal/mol for the second.

First: SMIKVGFNVTGLPEEAEAKAEELARELAEETGARVAGVELLEAVPHPDGGPETFNVLVTLEVPNPEAIEKSA [r9_302_TrMRF]
Second: SAGKKVKKITLTIKNKETGEYYKAEVIENENGEKYIKIINKKTGKIYIFKIKDGKIEPVKEISLKDIKPSAG [r5_619_TrROS_Hall]
The “folding stability dG unfold” value of the first is lower: 0.542 ± 0.045 kcal/mol for the first, 1.85 ± 0.067 kcal/mol for the second.

“SAGGTLRNMPVEQIAKRLQNHGYEIKVENIRHNEDRVRIKIEVERRNKNGKPHEEVKISIEIPDPDDFSAGG [r13_566_TrROS]” and “SAGGMKIKLKDGSEITIGSEPGRLVIVLRPPGPRSRKVIPFPVPSKEHGFVAAVNELLSLEDIEEIEPSAGG [r13_579_TrMRF]” are within error of each other in “folding stability dG unfold” value: 0.461 ± 0.23 kcal/mol for the first, 0.379 ± 0.11 kcal/mol for the second.

“SAGMIKPEEIVEKVKAIFEEEGLENVTVKVYYDEETDEIFVEVEVELEPEEEEKAQAILDKIKKELGLESAG [r5_9_TrMRF]” and “SAGGSAKIDIEVDPEDGYIRIKLEVQHNDEPVKATMWYPLPDDGMFIRIRFDMPNGKIEEIETIPPSAGGSA [r2_331_TrROS]” are within error of each other in “folding stability dG unfold” value: 3.02 ± 0.29 kcal/mol for the first, 2.69 ± 0.14 kcal/mol for the second.

“SAGGSAGGSAGGKKVTITLKDANGKELKIEVKEGEEVTIEVGGKKYKLTVKDGKIELKPVSAGGSAGGSAGG [r7_510_TrROS_Hall]” and “SAGGMKKITITIPLEELKNLTPEERKEKLKELAEEIAKKLGLPPGAKIKKIEVEEVDGKLYVKIEIESAGGS [r16_368_TrROS_Hall]” are within error of each other in “folding stability dG unfold” value: 4.03 ± 0.28 kcal/mol for the first, 3.82 ± 0.18 kcal/mol for the second.

Compared with “SAGDPDRPVVVVIHYVDPETGEPRVEVFPADRIERIEVSPDGVLRIHLPAYGLEIDFPLDVVDHVDIASAGG [r19_416_TrMRF]”, “SAGGKEIYVVRIEVYYPSNGKVEEKEYVIEATPEEAEELAKKIAEAFKEEAGEEVEVLRVEIKVYDLSAGGS [r16_140_TrMRF]” is higher in “folding stability dG unfold” value: 1.99 ± 0.064 kcal/mol for the first, 3.82 ± 0.22 kcal/mol for the second.

“SAGLGLEKAKKLAEKIAETLKKELEKELGIPADQIKVEAKVEKLPDGSYKITVKINLKDIPIEKVFYVDSAG [r14_226_TrMRF]” and “SKKYFLKIEIEIEVELRPLPDEPGYVVLRARIKIKITLVKVDPETGEIVEEKEFEIEIEIELVFPPGVKPSA [r9_1234_TrROS_Hall]” are within error of each other in “folding stability dG unfold” value: 3.5 ± 0.52 kcal/mol for the first, 4.35 ± 0.58 kcal/mol for the second.

First: SAGGSAGGSAGGKWHLITFTITMEMYVMKFDPENGKWKPVDPIPMEIQITFLIPPGDPISAGGSAGGSAGGS [r10_610_TrROS]
Second: SAGGSAEPPEVTVEVLSVEPTPDGYLVVERVVTTPDGVLVYRTVFRPPDGKPVGTDWALFPNPDALSAGGSA [r15_716_TrMRF]
The “folding stability dG unfold” value of the first is higher: 3.77 ± 0.25 kcal/mol for the first, 2.17 ± 0.23 kcal/mol for the second.

First: SAGGHTIMFPVKSPEQARDEIRDFARDQGLPIEPEDITIEQHEFKDPENGKKYRFFEITIDVTLKPPSAGGS [r16_587_TrROS]
Second: SAGGSAGGSAGGELNIDDIKIDWFPADDMDDRYIFTEKIRGPNGKPTMEVTFWLPAGDLSAGGSAGGSAGGS [r10_155_TrROS]
The “folding stability dG unfold” value of the first is lower: 0.0514 ± 0.056 kcal/mol for the first, 0.262 ± 0.068 kcal/mol for the second.

With “SAEKKVLVKVKIEVFNEDGELVEELELEVEMSAEEVKKKIKEELLKLLKEKYPDKPLTIKVEVEVKELPSAG [r14_570_TrROS_Hall]” the “folding stability dG unfold” value was 4.36 ± 0.74 kcal/mol.

assay: folding stability dG unfold (combined trypsin and chymotrypsin); higher = more stable
In short: as §1

Going from “SAGGSAGGSAGKPKTKTITLTLLVYDEETGEFYRIEARIEINEDGSITIEEKIEKLPLKPSAGGSAGGSAGG [r11_941_TrROS_Hall]” to “SAGGSAGGSAGKPKVKKITLKNPATGETVEAEVVEVDGYLVVRVRNKDDPEKTETFVFKLSAGGSAGGSAGG [r17_73_TrROS_Hall]”, the “folding stability dG unfold” value falls from 3.91 ± 0.12 kcal/mol to 2.48 ± 0.12 kcal/mol.

Compared with “SAGGPPRPVRIDIDPDAGSIEIMFPNGWPYEIPIPPDSIDEITLDPNDHVIEIKMPGKEIKFDIEPVSAGGS [r16_104_TrROS]”, “SAGEFKIDILPGDNVARITSPEGSFLAPFTATFTFDVPDIADPNKIKPKPVVFNLVIEMKLDDFFDLLSSAG [r5_234_TrMRF]” is higher in “folding stability dG unfold” value: 0.443 ± 0.11 kcal/mol for the first, 3.36 ± 0.15 kcal/mol for the second.

Compared with “KKYKVPVKEALKVAKKLIEKGYEKVKITAYLPNGEKYEIEDIKEFEEELKKKFPGIKPENLTVEIEVIPKES [r1_325_TrMRF]”, “SAGGSAGGSMIEYPELTLEELKAKFEAEGYTVEEEPPTNVVTLTPPDGTPITVTVTPVPESLLSAGGSAGGS [r12_211_JUSTAS]” is lower in “folding stability dG unfold” value: 4.16 ± 0.37 kcal/mol for the first, 0.803 ± 0.057 kcal/mol for the second.

Going from “SAGGSAIKVSTSPSDVSVSKVPLPNGETLTIEVSSNGETTVTKTSPTPGTPTTTTVPGASVEELLESAGGSA [r15_406_JUSTAS]” to “SAGMLTYRFTVPAEEAEEAAEELAETLRRELGLPEEVKVEVKVVEYDPETGLVTVEAVVYRPLPEGVEPSAG [r5_537_TrMRF]”, the “folding stability dG unfold” value rises from 0.762 ± 0.031 kcal/mol to 4.5 ± 0.14 kcal/mol.

Compared with “SAGGSAGGSAGGGISEAAASGTPLLVTYTDESGNVTEVVVRPDSPVPLPGVVSAEVRLESAGGSAGGSAGGS [r10_700_JUSTAS]”, “SAGGSAGGKKKKKKKKKYYTFVLKVKEKDLTPEEIKKLFPNVKIEKKDGYLVITVKVNGKEIKFSAGGSAGG [r6_738_TrROS_Hall]” is higher in “folding stability dG unfold” value: 0.666 ± 0.037 kcal/mol for the first, 2.11 ± 0.31 kcal/mol for the second.
